# ± gives the uncertainty stated by the source.
# Experiment: self-splicing fitness, log relative to wild type (ln ratio); higher = more splicing; Tetrahymena group I intron in knt gene, E. coli kanamycin selection, DiMSum; sequences stand for … in CUCUCU…GGAGGGAAAAGUUAUCAGGCAUGCACCUGGUAGCUAGUCUUUAAACCAAUAGAUUGCAUCGGUUUAAAAGGCAAGACCGUCAAAUUGCGGGAAAGGGGUCAACAGCCGUUCAGUACCAAGUCUCAGGGGAAACUUUGAGAUGGCCUUGCAAAGGGUAUGGUAAUAAGCUGACGGACAUGGUCCUAACCACGCAGCCAAGUCCUAAGUCAACAGAUCUUCUGUUGAUAUGGAUGCAGUUCACAGACUAAAUGUCGGUCGGGGAAGAUGUAUUCUUCUCAUAAGAUAUAGUCGGACCUCUCCUUAAUGGGAGCUAGCGGAUGAAGUGAUGCAACACUGGAGCCGCUGGGAACUAAUUUGUAUGCGAAAGUAUAUUGAUUAGUUUUGGAGUACUCGUGGUCG
# Summary of the method: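 Pooled colonies went to amplicon sequencing on an Illumina HiSeq 2500 after six replicate transformations. The plates were LB agar with 100 μg/mL carbenicillin, 50 μM IPTG and 0.2% rhamnose, with or without 25 μg/mL kanamycin, incubated overnight at 37°C or 30°C. The E. coli BL21(DE3) library had all eight P1ex-region intron nucleotides randomised, the intron placed in the knt kanamycin-resistance gene on pET-22b(+). DiMSum fitness is the error-weighted combination of replicate fold changes, kanamycin against none, normalised to wild type.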
Sequence,self-splicing fitness (ln) (30 °C),self-splicing fitness (ln) (37 °C)
CAAUAGCAAUAUUACGUCAU,-3.6 ± 0.14,-2.88 ± 0.17
AUAAAGCAAUAUUACGCGCG,-0.354 ± 0.09,0.713 ± 0.12
AGUCAGCAAUAUUACGUUGG,-2.9 ± 0.17,-1.83 ± 0.18
GCGCAGCAAUAUUACGCUAC,-1.82 ± 0.17,-1.71 ± 0.3
CAGUAGCAAUAUUACGCUCC,,-1.31 ± 0.4
AAGCAGCAAUAUUACGGAGA,-2.7 ± 0.13,-1.44 ± 0.13
AACAAGCAAUAUUACGCUAU,-2.25 ± 0.075,-1.52 ± 0.074
GUUCAGCAAUAUUACGGGAC,-2.39 ± 0.18,-1.16 ± 0.19
AUCUAGCAAUAUUACGUGUU,-2.71 ± 0.17,-2.54 ± 0.17
CGCGAGCAAUAUUACGAUAG,-1.05 ± 0.13,-0.593 ± 0.16
GGAGAGCAAUAUUACGAGCG,,-1.86 ± 0.37
GGCUAGCAAUAUUACGGCCG,-1.45 ± 0.23,-0.656 ± 0.22
AAGUAGCAAUAUUACGUGCU,-1.29 ± 0.08,-0.982 ± 0.1
UAGAAGCAAUAUUACGACGG,-0.626 ± 0.095,0.0889 ± 0.14
GCAAAGCAAUAUUACGUUAU,-1.73 ± 0.084,-1.54 ± 0.092
CGGCAGCAAUAUUACGAUGA,-1.21 ± 0.095,-1.21 ± 0.12
GCCGAGCAAUAUUACGAACU,-2.13 ± 0.3,-0.52 ± 0.42
AAGUAGCAAUAUUACGCCGC,-3.12 ± 0.38,
CCUAAGCAAUAUUACGGACC,-3.02 ± 0.49,
CGAGAGCAAUAUUACGCUGU,,-3.26 ± 0.38
AUUAAGCAAUAUUACGUCUU,-0.854 ± 0.091,-0.387 ± 0.11
AUGCAGCAAUAUUACGCUCC,-2.02 ± 0.29,0.0573 ± 0.36
CCAGAGCAAUAUUACGGGAU,-4.38 ± 0.3,-2.48 ± 0.18
UGAAAGCAAUAUUACGCACA,-0.903 ± 0.15,0.683 ± 0.15
CCUUAGCAAUAUUACGGGCA,-3.91 ± 0.33,-3.36 ± 0.35

Sequence,self-splicing fitness (ln) (30 °C),self-splicing fitness (ln) (37 °C)
UUAGAGCAAUAUUACGUCAG,-1.02 ± 0.15,-0.83 ± 0.17
UUAAAGCAAUAUUACGUGGC,-3.08 ± 0.15,-2.98 ± 0.3
UACCAGCAAUAUUACGAAUG,-0.839 ± 0.055,-0.00427 ± 0.073
CAGUAGCAAUAUUACGCAUG,-2.31 ± 0.2,-2.46 ± 0.29
UAACAGCAAUAUUACGGACG,-0.143 ± 0.055,0.21 ± 0.079
CGUGAGCAAUAUUACGGGCG,-2.93 ± 0.46,-1.63 ± 0.43
UAUUAGCAAUAUUACGCUUU,-2.01 ± 0.16,-0.435 ± 0.18
GCCGAGCAAUAUUACGAUUU,-2.04 ± 0.14,-0.375 ± 0.14
UUCGAGCAAUAUUACGGACU,-4.76 ± 0.38,-2.63 ± 0.21
GAAGAGCAAUAUUACGGUAC,-3.39 ± 0.31,-1.69 ± 0.32
ACCCAGCAAUAUUACGGCUU,-0.338 ± 0.071,0.053 ± 0.089
GAUAAGCAAUAUUACGAGAA,,-1.38 ± 0.38
CACUAGCAAUAUUACGGCUG,-0.972 ± 0.054,0.114 ± 0.065
GUACAGCAAUAUUACGGUCU,-0.535 ± 0.084,-0.00413 ± 0.11
CUCGAGCAAUAUUACGCUAC,-0.697 ± 0.2,
ACGGAGCAAUAUUACGAUUA,-2.6 ± 0.25,-2.23 ± 0.29
AGUUAGCAAUAUUACGGAAA,-2.89 ± 0.35,-2.55 ± 0.44
ACAUAGCAAUAUUACGCCAG,-2.65 ± 0.18,-1.5 ± 0.21
UUAGAGCAAUAUUACGGUUA,-0.618 ± 0.15,-1.17 ± 0.23
CCGGAGCAAUAUUACGCGGU,-3.21 ± 0.16,-2.96 ± 0.23
ACCAAGCAAUAUUACGCGGA,-1.11 ± 0.068,-0.537 ± 0.077
GAUUAGCAAUAUUACGGGGU,-3.45 ± 0.18,-2.11 ± 0.13
CUCGAGCAAUAUUACGUAAA,-3.8 ± 0.34,
CUACAGCAAUAUUACGCGCG,-1.36 ± 0.082,-0.796 ± 0.11
UAAAAGCAAUAUUACGAUUG,-1.18 ± 0.087,-0.639 ± 0.11

Sequence,self-splicing fitness (ln) (30 °C),self-splicing fitness (ln) (37 °C)
AGCCAGCAAUAUUACGGUUC,-4.47 ± 0.19,-3.66 ± 0.27
CCGCAGCAAUAUUACGCCGA,-2.35 ± 0.19,-1.42 ± 0.14
AACGAGCAAUAUUACGUCAU,-2.98 ± 0.1,-2.44 ± 0.13
AUUGAGCAAUAUUACGGUUC,-3.69 ± 0.33,-2.16 ± 0.25
UCUCAGCAAUAUUACGUUGC,,-2.73 ± 0.23
AAACAGCAAUAUUACGGACA,-1.54 ± 0.092,-1.1 ± 0.096
GUACAGCAAUAUUACGUCAU,-1.7 ± 0.09,-1.13 ± 0.11
GUGCAGCAAUAUUACGUUAA,-1.75 ± 0.13,-1.25 ± 0.13
GCCCAGCAAUAUUACGCGGA,-0.775 ± 0.098,-0.201 ± 0.12
AUACAGCAAUAUUACGCACA,-0.789 ± 0.11,0.62 ± 0.12
AAAAAGCAAUAUUACGGUCU,-0.167 ± 0.057,-0.0164 ± 0.073
GGAAAGCAAUAUUACGGUAU,-1.82 ± 0.11,-1.31 ± 0.13
UGGCAGCAAUAUUACGCCUA,-0.238 ± 0.21,0.697 ± 0.42
GACCAGCAAUAUUACGCGAG,-1.37 ± 0.16,-0.897 ± 0.13
UCUGAGCAAUAUUACGGUUG,-3.75 ± 0.23,-3.15 ± 0.3
GUGCAGCAAUAUUACGAGCU,-1.45 ± 0.062,-0.353 ± 0.082
AUUUAGCAAUAUUACGGGAG,-2.97 ± 0.41,-0.342 ± 0.16
CCAUAGCAAUAUUACGCCUG,-1.08 ± 0.084,0.137 ± 0.099
AUGGAGCAAUAUUACGCUAG,,-1.66 ± 0.25
UUUUAGCAAUAUUACGCAGG,-1.33 ± 0.12,-1.03 ± 0.16
AAGCAGCAAUAUUACGCGCG,-1.16 ± 0.082,-0.105 ± 0.1
GAAGAGCAAUAUUACGUGUA,-2.66 ± 0.2,-2.76 ± 0.19
AUGCAGCAAUAUUACGUGAC,-3.3 ± 0.21,-2.08 ± 0.16
UCAGAGCAAUAUUACGACGU,-1.87 ± 0.2,0.0812 ± 0.17
UGUAAGCAAUAUUACGCCAU,-3.9 ± 0.27,-3.35 ± 0.3

Sequence,self-splicing fitness (ln) (30 °C),self-splicing fitness (ln) (37 °C)
CGCUAGCAAUAUUACGUGUG,-4.15 ± 0.27,-3.12 ± 0.19
GUCUAGCAAUAUUACGUAUC,-0.834 ± 0.08,0.353 ± 0.11
GAGUAGCAAUAUUACGCCUU,-3.2 ± 0.23,-0.976 ± 0.24
UCGCAGCAAUAUUACGUGUC,-3.83 ± 0.2,-2.28 ± 0.17
ACGCAGCAAUAUUACGAAUA,,-2.19 ± 0.23
CGUCAGCAAUAUUACGCACU,-0.336 ± 0.071,0.339 ± 0.079
AGGGAGCAAUAUUACGUGGU,,-3.13 ± 0.4
GUCGAGCAAUAUUACGGGCA,-2.65 ± 0.4,-0.9 ± 0.18
CUGUAGCAAUAUUACGCACU,-1.84 ± 0.37,-2.25 ± 0.31
UUACAGCAAUAUUACGACUC,-2.69 ± 0.24,-1.28 ± 0.2
CUAUAGCAAUAUUACGACCU,-2.85 ± 0.42,
UGACAGCAAUAUUACGGCGG,-0.935 ± 0.053,0.0557 ± 0.072
UCCCAGCAAUAUUACGUAGU,-0.707 ± 0.046,-0.458 ± 0.066
CAUGAGCAAUAUUACGCCCG,-1.56 ± 0.18,-0.89 ± 0.2
ACUUAGCAAUAUUACGCAUG,-1.76 ± 0.085,-0.581 ± 0.11
UAGCAGCAAUAUUACGGUUC,-3.12 ± 0.1,-1.89 ± 0.091
AGGCAGCAAUAUUACGAUAA,-1.82 ± 0.11,-2.3 ± 0.16
AAAGAGCAAUAUUACGGUAU,-3.02 ± 0.17,-2.28 ± 0.15
GGUGAGCAAUAUUACGUCGG,-2.16 ± 0.28,-2.5 ± 0.3
CACCAGCAAUAUUACGGGUC,-2.54 ± 0.07,-2.17 ± 0.092
GUACAGCAAUAUUACGCUAG,-1.88 ± 0.12,-0.374 ± 0.12
GUUUAGCAAUAUUACGUUGU,-4.02 ± 0.21,-2.17 ± 0.16
AUGAAGCAAUAUUACGUAAC,-2.45 ± 0.18,0.328 ± 0.16
GUAUAGCAAUAUUACGCAGU,,-2.33 ± 0.37
